Consider 37 sequences from a protein production outcome set (Wang et al. 2014).
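Note: failed if final PepcDB status was selected cloned or expressed and not failed if soluble or beyond.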

The nature of this data set: label from the status in PepcDB records.
For the sequence “AYPDFAPQKFKEKTQGQVKILEDSFLKSSFPTQAELDRLRVETKLSRREIDSWFSERRKLRDSMEQAVLDSMGSGK”, the protein production entry is “not failed”.
The entry for “CASRQEHSLRIIHTTDLHGNVFPTDFKALRPTSGGMSRLASFLKAARSDRSELLLFDGGDVLQGDPTAYYYNYMDTTGTHLFSRAMNYLRYDAAIPGNHDIETGHAVYDKWVAGCDFPFLAANAIDTETGKPYWAPYKVFDRNGLRVALLGFITPAIPEWLPQSLWTGMRFDDIIESAKYWVPFVIQKEKPDFVVCVLHSGRENDNSNYLEDAGMTLAREVAGIDVLLLGHDHQEYSRRVKGAEADSVLVLNPANHLDKVSDVRLSLARKGDKVLHKRVEGGLTDISRLTPDSAFMAHFSSDEAAVRRFVNE” is “failed”; for “CLVDPHTVLPSPISGPTETIRSLRRCAAAGGYGQVALLPRGQSWRDQPERLIGLQNADPSSVHLPLWGGFSLNGKGDELAPHGDLLEHGAIGLADDDAVVPLPLLERGLLLGEMGSCPVLIAPRDPNLQGDGLAREGVETLRAGWAPDPLISELLPLQQLLALQQRHPDRQLRLMNISTAAAVDLLGQADPQLKASVCWWHLLVDGSSLSSTDPGCRVRPSLGGAADRLRLRSALQSGLIQAVAVHAVPLDEEDMLLPADQRPPGLSGHHLVMPALWSALVDQGDLSIESLWELLSFGPSAFLDQP” it is “failed”.
Then “CRLLWDYVYQLLSDSRYENFIRWEDKESKIFRIVDPNGLARLWGNHKNRTNMTYEKMSRALRHYYKLNIIRKEPGQRLLFRFMKTPDEIMSGRTDRLEHLESQEL”, with “not failed”.
The entry for “CSDLPEIQNGWKTTSHTELVRGARITYQCDPGYDIVGSDTLTCQWDLSWSSDPPFCEKTEE” is “not failed”; for “CTRAVYLGPDRMVVTGRTMDWKEDIMSNIYVFPRGMQRAGHNKEKTVNWTSKYGSVIATGYDIGTCDGMNEKGLVASLLFLPESVYSLPGDTRPAMGISIWTQYVLDNFATVREAVDEMKKETFRIDAPRMPNGGPESTLHMAITDETGNTAVIEYLDGKLSIHEGKEYQVMTNSPRYELQLAVNDYWKEVGGLQMLPGTNRSSDRFVRASFYIHAIPQTADAKIAVPSVLSVMRNVSVPFGINTPEKPHISSTRWRSVSDQKNKVYYFESTLTPNLFWLDLKKIDFSPKAGVKKLSLTKGEIYAGDAVKDLKDSQS” it is “not failed”.
Consider “DAALCAFDADGVVTHWNREAERILGWTAAEAVGRRGFAGWAVRTADAEDVEARLMTAMQAPGRQVHEFALLTKDGGRVLVRTQSAAVHGPDGKPAGVYCAFSEVH”, for which the protein production result is listed as “not failed”.
Then “DAFTDQKIRQRYADLPGELHIIELEKDKNGLGLSLAGNKDRSRMSIFVVGINPEGPAAADGRMRIGDELLEINNQILYGRSHQNASAIIKTAPSKVKLVFIRNEDAVNQMA”, with “not failed”.
The entry for “DAGGGVGKELVDLKIIWNKTKHDVKVPLDSTGSELKQKIHSITGLPPAMQKVMYKGLVPEDKTLREIKVTSGAKIMVVGSTI” is “not failed”; for “DDFVSLGTSGWHARVVSTVSDPSEVRQFALPDGGILRIASVLSVGGTADWARSVLLPGVSAKEADALMLQRPRLATGLLSLPSIQGESFPVRSHSVGGCILGMRGNQDPLTLYTAVIEGICMTLAHDIKPGGILPATGGGARSVPWMRILASVTNRNIHVTVSEDAALHGAASLAAYATSAEYLPTLAARAIVEIEPEPEVVASFEPLIAKHLELFRFAAALSY” it is “failed”.
The entry for “DGRIFKMFIEHLEFEKGLDAFSQSWIKALEDSEFLAILRLLFHHIVTSESAHEFAANGIDRLYKMVESQFGSGGDKELEWLIGRSLIQMSK” is “not failed”; for “DIGGITGSFYLNTNALPTNADKIKSLILEVIEQCQIKSDDVVLYGCSKGGTAAVYHGLTNNYKIVAV” it is “failed”; for “DILVFTPRKSDAGISVILYPGAFVDALSYAPLANKLASSGYKTYIAEMPLNLAVFGKNRAADIIDEAPDEKFVIGGHSLGGVMSSRFAHENESEIEGVFFLASYPDKKGSLKNASFPALSITGTKDDVLNKDAYDKNKKYLPKDTTFVSIEGGNHAQFGSYGAQHGDGKATISEAEQTDQVSNALIAWLNTSVKNQE” it is “not failed”.
For the sequence “DIVARLQTQASATVAIPKEHHRFVIGKNGEKLQDLELKTATKIQIPRPDDPSNQIKITGTKEGIEKARHEVLLISAEQDKR”, the protein production result was “not failed”.
Then “DKEWNEKELQKLHCAFASLPKHKPGFWSEVAAAVGSRSPEECQRKYMENPRGKGSQKHVT”, with “not failed”.
The entry for “DKIAIIGSRRMSVYTKNCVFSLASMLKNAHLCVVSGGALGVDITASMAAMPNTIGIFANGLDQIYPRTNEKIIKQIYENALALSEYEDDYLPKNYDFLLRNRLVIALSKAVVVAQADIKSGSMQSAKLALELNKPLYVLPQRLGESTATNLLLKENKAKLICDFKEFVSEFASID” is “failed”.
Then “DKIGIERFLFPLGLYSYFRWMKQYERDRGLFLSLLLSLLYESTHNFLSVIFSSITGDNFVLQY”, with “failed”; and “DKIHMLKQQNIIGIGTHNGITTIHTTNHKYETTEPLNRYEKRLNPTYFIRIHRSYIINTKHIKEVQQWFNYTYMVILTNGVKMQVGRSFMKDFKASIGLL”, with “failed”.
Consider “DKSNKLQNLVAEQLVGCGFNEILNNSLTRAAYYDGLESYPSKNLVMLLNPLSADLNCMRQTLLFGGLESIAHNANRKNADLKFFEFGNCYHFDAEKKNPEKVLAPYSEDYHLGLWVTGKMVSNSWAHADENTSVYELKAYVENIFKRLGLDLHSLVVGNLSDDIYSTALTVNTKGGKRLATFGVVTKKMLKAFDVDNEVYYADLNWKELM”, for which the protein production entry is “not failed”.
Take “DLSSVIKASQTLASEIKLEKLLSTLMELVIENAGAKKCVLVLLKNERLLIEAIAKINQVPISTILVSIPIAESDEIPISLINYVSHTSQTLVIDDATTEDLFISDPYIQQKEPKSLLCTPIIKQGKLMGILYLENHLTTGAFTSDRLQVINLLMAQAAISLENAQLYGQLAEYSQNLELKVEQRT”: the protein production result was “failed”.
The entry for “DPQILTTPGRDIAELRRIAGRPLSVAIDFEGGRVLRHRGILGDFPSPQVMAQTMTPEQVRGMAYDMGRSLFAHGINVNFAPVVDIEAGLEVVGDRAFSPDPLIDATYATAFAQGMADAGVRPVLKHFPGHGRASGDSHTAQVHTPPLAELEKLDLIPYGRVP” is “failed”; for “DQPVINFGIISTESSQNLKSIWEPFLKDMSQQTGYQVKAFFAPDYAGIIQGMRFDKVDIAWYGNKAAMEAVDRAHGEIFAQTVAASGAPGYWSLLIANKDSKIDSLEDMLANAKSLTFGNGDPNSTSGYLVPGYYVFAKNNVDPVKAFKRTLNSSHEVNALAVANKQVDVATFNTEGMERLELTQPEKARQLKVIWKSPLIPGDPLVWRNNLSDEQKNKLRDFFFKYGANAEQKKVLADLQWSKFQPSDDDQLLPIRQLELFKQRTDVANNANLGAEEKAAKLKALDEELAKLEKRMAEREQKTAANAG” it is “not failed”; for “DRAVKEFEANGGSSAANGGGAKKRAKPAKKVAKKSKKEESDEDDDDESE” it is “failed”.
Then “DRRVRRNMEIAEIVGLDAHTKMLRTSTVFQWDSVKDEHAMVGTSKALEEIRRQRGWSVRELNEELERRRRVLEFMLSNGIRMFKDVSAVIHTYQVNPERAMKRLGVEEL”, with “failed”; and “DRTEERHAKGLRRQVDHRFDKLVGTISEGVLLMDDTGVFRDGNEAAQNILGRSLDEIIGSRFDDDIWNGLREDGSPLPNVEFPFWRAYVEREPVQEEVMGVYPPDAPPRWIRVNAQPLFRSGQEAPYAVLV”, with “not failed”; and “DSALENPAQVRNYLKAQLRHEPHEVFACLFLDNKHRVMTFEILFRGTINASYVHPRQVVKRALAHNAASLILCHNHPSGITTPSRSDIDLTKRLKEALKLVDVHVLDHVIVGDGEPLSMVEKGLM”, with “not failed”.
Turning to “DSLGREAKCYNELNGCTKIYDPVCGTDGNTYPNECVLCFENRKRQTSILIQKSGPC”, the protein production entry is “failed”.
Then “DSVDKTMHIGRQLGSLVNKGDILCLTGDLGTGKTHISKGIAEGLGIDEHITSPTFNIVNEYHSGRLTLYHFDVYRVNDPDEIEAIGFDEYIFGDGVSLIEWANYIEELIPEEYIHIKIEKLPDMGENFRKITINGYGDRYNYIKEIKE”, with “failed”; and “DTVLIVNKKAEIIWINNNITNLLGYLPDELLGKSIECLVPSRTREKHVNLRNSFINKPNKRSMNQGSGLWAVHKKNHEIPVCIDLNHYEESGEKFTVCSIRL”, with “failed”.
Then “DVARVQRLAAALATAGTVRDVSQAVVAALRRPLRADRIALAELENDRLVVTVLDPPDPESWPELWRLEWRTEWPDAPVRAMPTLAAALREGRARIWPAGTGDLEPALADVGPGGLAVLPLPAGGRMAGACLIGWDTPHDFGPDERALLTASAGLAGQALMRAHAFDAEHELVGMLQRQL”, with “failed”; and “DVTEQKQAEAELHQRDRLLQAVAEAANWLVVEMNYDTAIEKALAVVGEAAQADRAYLFKNHPHPITGKRAVSLQFEWYGSDLQPSIQDWQNQLYQSTELSRWYSVLSSGKSINELRRKLPVAERELLERQGIQSLLLVPLGLEDQFWGYLGLADCTQERYWSRHEESTLLTMAASISGAWQRQQVEEKIRYQALHDL”, with “not failed”.
Take “DYFTTTNSIPPVITTNHRRKHSIEKFYRDQLGSIIWNEEDVGHQQVPEINKHGYRAAVKIIVIIDNMERKAAIQSRQSYDEALRYGAVLIFLPGIYEIDT”: the protein production result is “failed”.
Then “EAPVRVIVVHGLGTHSGALWPLVAAIEGADLAAIDLPKTPLYDDWLRLLESFISSEDDGRPLILIGAGTGGLLCAEAAHRTGLVAHVIATCLLNPSDQPTRRALFRFSPLTRLIQGRLRNREIPVTRVLNFSKISRSPALSKLCAADEFSGASKITWGFLASYVQHKAKLGAVPVTLMHPDHDLLTPVELSLRTLSRLKAPTDVVMLKDCGHFPIEEPGFTTMLETVTSVIARNS”, with “failed”.
For the sequence “EDGLFSVVLPFMSSFLLDPNAADPGYLKTRDYLTYNGVTTVADMNTGGTNWELEISALKRNLDTPESPIRVRLTPDVMKLAAALKSPEAAMTLVNQMKQHNTDNLVFNGGIKLFADGAMFSQAMQINAPGYIDGHKGEWITQPSSFVEFARSYWNAGYQIHVHTNGDGGAKMVLDTLQELENDKPRADHRFTVEHYGYADDGTSRRIAKLDAQVSANPFYLFDLGDRYAENGLGFDRAARIAPLGGLASRNVPVALHSDFPMAPAEPLFLAWTAMSRETLSGKVFSPSERLTLDQAIRAITIDAAYMIGMENE”, the protein production result is “failed”.
The entry for “EDKKGGTKPSNEAALTKTENLDFRLSFNKIKVTTDQNHFSGGTSIEQLKQWFGDPNKSEQRNAGNITLDSYTWVKDGAVINAQLYKNSTVARSISNFSFSREAKIGKEDYDELKIGESYKKVVEKLGEPDVLSQSMSSDKEEMQTVWSSGIKTKSSSATIELYFENGLLKNKTQKDLE” is “not failed”; for “EDYEKVPLPNSVFVNTTESCEVERLFKATSPRGEPQDGLYCIRNSSTKSGKVLVVWDETSNKVRNYRIFEKDSKFYLEGEVLFVSVGSMVEHYHTHVLPSHQSLLLRHPYGYT” it is “not failed”; for “EEDWVLPSEVEVLESIYLDELQVIKGNGRTSPWEIYITLHPATAEDQDSQYVCFTLVLQVPAEYPHEVPQISIRNPRGLSDEQIHTILQVLGHVAKAGLGTAMLYELIEKGKEILTDNNIPHGQ” it is “not failed”.
